For one assay, the target named is T1, human serum albumin (human, UniProt P02768 25-609).
T1 construct: also called HSA
The assay can be described thus: SPR (Biacore), albumin captured on CM5 chip, SABA flowed. The procedure:
(§1) The kinetics of selected SABA clones purified from HTPP and/or midscaled material were determined by capturing the respective serum albumin (HSA/RhSA/MuSA) on the surface of a Biasensor CM5 chip and flowing a concentration series of SABAs over both the reference flow cell and the captured albumins. In addition, binding to albumin was carried out under various pH conditions ranging from pH 5.5 to pH 7.4. […] SABA1.1 fits biochemical criteria for pH resistance and affinity/kinetics down to pH 5.5. […]
Background: In SPR one partner is held on a chip, and binding of the other changes the refractive index at the surface.

For a further assay, the target named is T2, rhesus serum albumin (rhesus, UniProt Q28522 17-600).
T2 construct: also called RhSA
Described as above. The procedure:
as §1

In a further assay the target is T3, murine serum albumin (mouse, UniProt P07724 25-608).
T3 construct: also called MuSA; mouse serum albumin
The assay can be described thus: SPR, albumin captured on CM5 chip. The procedure: The kinetics of selected SABA clones purified from HTPP and/or midscaled material were determined by capturing the respective serum albumin (HSA/RhSA/MuSA) on the surface of a Biasensor CM5 chip and flowing a concentration series of SABAs over both the reference flow cell and the captured albumins. In addition, binding to albumin was carried out under various pH conditions ranging from pH 5.5 to pH 7.4. […] SABA1.1 fits biochemical criteria for pH resistance and affinity/kinetics down to pH 5.5.

Assay [1] deals with T4, human IL-23 (human, UniProt Q9NPF7 20-189; P29460 23-328).
T4 sequence (looked up) 1: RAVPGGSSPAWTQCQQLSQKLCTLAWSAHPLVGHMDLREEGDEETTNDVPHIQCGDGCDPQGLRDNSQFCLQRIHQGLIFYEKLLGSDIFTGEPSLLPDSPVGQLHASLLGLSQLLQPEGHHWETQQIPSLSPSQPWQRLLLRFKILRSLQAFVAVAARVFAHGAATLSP
T4 sequence (looked up) 2: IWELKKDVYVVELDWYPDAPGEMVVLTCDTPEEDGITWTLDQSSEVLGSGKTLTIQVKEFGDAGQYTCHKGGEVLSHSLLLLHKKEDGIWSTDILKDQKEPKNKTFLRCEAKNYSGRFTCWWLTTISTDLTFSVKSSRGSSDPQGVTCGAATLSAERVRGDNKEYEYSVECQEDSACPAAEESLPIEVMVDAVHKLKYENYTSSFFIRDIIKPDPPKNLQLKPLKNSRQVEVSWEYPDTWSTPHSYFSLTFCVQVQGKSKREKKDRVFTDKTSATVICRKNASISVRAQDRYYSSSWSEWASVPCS
The assay is described as follows: cell-based or functional assay.

Assay [2] has as its target T4, human IL-23. The assay can be described thus: cell-based or functional assay. The source holds these as a separate data set.
For assay [3], the target named is T4, human IL-23. The assay is described as follows: SPR, Adnectin captured by anti-His mAb, IL-23 injected. The procedure:
All surface plasmon experiments were conducted in HBS-EP (10 mM Hepes 150 mM NaCl 3 mM EDTA 0.05% Surfactant P20) at 25° C. IL-23 was injected over anti-His mAb captured Adnectins for 2 minutes followed by a 10 minute dissociation phase. Evaluation of the binding specificity was completed using Biacore T100 evaluation software. Additional detailed methods are described in Example 4.

Assay [4] addresses T4, human IL-23. The assay is described as follows: SPR (ProteOn XPR), human IL-23 directly immobilized, 25 C. The procedure: The binding characteristics were characterized by Surface Plasmon Resonance (SPR). Human IL-23 was immobilized at two to four levels in one dimension of a ProteOn XPR (Bio-Rad) chip surfaces and exposed to 6 different concentrations of anti-IL-23 adnectins in the other dimension of the same SPR chip surface. This allowed kinetic determination in the absence of regeneration. Duplicate chips were used for kinetic determinations at 25° C. and 37° C. Evaluation of the kinetic parameters was performed using the Langmuir interaction model and constant parameter fitting with the ProteOn Manager software.
Even at 37° C. the off rates were close to the limit of detection for SPR technologies so it is possible that the reported dissociation constant measurements are under-estimates.

Consider 15 molecules from patent US20130012436A1 (Bristol-Myers Squibb, published 2013).

Residue numbers refer to the chain shown, from its start. Bounds are passed on as bounds.

A word on the Kd: it is the constant that tells how readily two partners part at equilibrium. Broadly, the koff is the rate constant with which the complex falls apart. A lower koff goes with slow dissociation. The term kon denotes the second-order rate constant of association. Read a high kon as faster complex formation.

T1 sequence (P02768 25-609 limits assumed): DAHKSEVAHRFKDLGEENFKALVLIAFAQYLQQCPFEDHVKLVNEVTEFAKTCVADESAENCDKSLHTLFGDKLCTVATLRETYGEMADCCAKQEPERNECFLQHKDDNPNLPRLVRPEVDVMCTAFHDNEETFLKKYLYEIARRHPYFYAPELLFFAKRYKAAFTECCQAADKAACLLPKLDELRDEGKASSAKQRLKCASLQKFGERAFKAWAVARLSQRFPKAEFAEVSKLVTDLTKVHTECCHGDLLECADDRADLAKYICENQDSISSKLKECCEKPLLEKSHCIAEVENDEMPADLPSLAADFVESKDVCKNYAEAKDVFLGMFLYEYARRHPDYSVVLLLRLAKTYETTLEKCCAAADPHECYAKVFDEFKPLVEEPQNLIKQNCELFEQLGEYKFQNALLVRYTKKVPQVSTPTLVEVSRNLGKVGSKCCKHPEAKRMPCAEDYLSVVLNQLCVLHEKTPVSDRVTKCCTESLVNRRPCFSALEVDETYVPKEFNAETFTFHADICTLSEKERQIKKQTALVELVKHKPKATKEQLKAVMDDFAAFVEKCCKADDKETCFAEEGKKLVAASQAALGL
T2 sequence (Q28522 17-600 limits assumed): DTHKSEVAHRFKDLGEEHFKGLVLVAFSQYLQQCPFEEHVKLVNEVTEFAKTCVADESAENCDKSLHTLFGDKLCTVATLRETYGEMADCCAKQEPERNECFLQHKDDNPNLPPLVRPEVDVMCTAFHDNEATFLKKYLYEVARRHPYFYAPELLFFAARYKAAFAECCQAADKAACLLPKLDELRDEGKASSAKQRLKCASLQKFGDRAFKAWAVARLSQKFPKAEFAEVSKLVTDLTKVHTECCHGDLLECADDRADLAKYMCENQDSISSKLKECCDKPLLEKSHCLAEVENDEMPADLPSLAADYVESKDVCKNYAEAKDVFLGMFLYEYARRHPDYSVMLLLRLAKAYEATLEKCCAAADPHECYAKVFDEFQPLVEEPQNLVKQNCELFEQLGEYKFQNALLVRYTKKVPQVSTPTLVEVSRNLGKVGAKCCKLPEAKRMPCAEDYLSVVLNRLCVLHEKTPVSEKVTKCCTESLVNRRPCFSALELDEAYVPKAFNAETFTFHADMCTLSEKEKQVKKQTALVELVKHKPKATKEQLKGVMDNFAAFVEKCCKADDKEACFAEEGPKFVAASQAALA

B1: SABA1.1 (designed binder)
chain: MGVSDVPRDLEVVAATPTSLLISWHSYYEQNSYYRITYGETGGNSPVQEFTVPYSQTTATISGLKPGVDYTITVYAVYGSKYYYPISINYRTEIDKPSQHHHHHH
Consider B1, for which, in the assay with human serum albumin, binding was characterised by a dissociation constant (Kd) of 47.2 nM and the off-rate constant (koff) was found to be 0.000457 s⁻¹. In the assay with rhesus serum albumin, the Kd turned out to be 778 nM and the koff was determined as 0.00545 s⁻¹. For the same molecule, the binding result with murine serum albumin is “no binding”.

B2: 1490B03 (designed binder)
chain: MGVSDVPRDLEVVAATPTSLLISWGHYPLHVRYYRITYGETGGNSPVQEFTVPSRKYTATISGLKPGVDYTITVYAVTYYKEANYREIPISINYRTEIDKPSQHHHHHH
notes: captured by anti-His mAb
As for B2, in the assay with human IL-23 [1], the “IL-17 EC50” value turned out to be 1.4 nM, the “IL-22 EC50” value is 1.7 nM and the “PBMNC pSTAT3 IC50 (nM)” value amounted to 0.09 nM. In the assay with human IL-23 [2], the “Kit 225 pSTAT3 IC50 (nM)” value came out at 0.3 nM. Further, in the assay with human IL-23 [3], the kon worked out at 153000 M⁻¹ s⁻¹.

B3: 1572C09 (designed binder)
chain: B2 chain with L29M, V31I, S54T, R55P, Y57H, K81N, N84D, R86S, E87Q
notes: captured by anti-His mAb
With B3, in the assay with human IL-23 [1], the “IL-17 EC50” value came out at 7.9 nM and the “IL-22 EC50” value worked out at 5.3 nM. For the same molecule, the “Kit 225 pSTAT3 IC50 (nM)” value in the assay with human IL-23 [2] was found to be 0.5 nM. In the assay with human IL-23 [3], this molecule yielded a kon of 60700 M⁻¹ s⁻¹.

B4: 1571G04 (designed binder)
chain: B2 chain with S54P, K56S, Y57H, K81A, E82Q, A83E, R86K
notes: captured by anti-His mAb
For B4, in the assay with human IL-23 [1], the “IL-17 EC50” value came out at 1.4 nM, the “IL-22 EC50” value is 1.3 nM and the “PBMNC pSTAT3 IC50 (nM)” value was found to be 0.23 nM. In the assay with human IL-23 [4], the affinity, expressed as Kd, was 0.2 nM; the koff worked out at 1.2e-05 s⁻¹; the kon came to 57000 M⁻¹ s⁻¹. Further, the “Kit 225 pSTAT3 IC50 (nM)” value with human IL-23 [2] was determined as 0.1 nM. Besides, in the assay with human IL-23 [3], binding was put at a Kd of 2.1 nM, the off-rate (koff) was determined as 0.000361 s⁻¹ and the kon was determined as 170000 M⁻¹ s⁻¹.

B5: 1571H03 (designed binder)
chain: B2 chain with S54N, K56V, K81A, E82Q, A83E, N84E, R86H, E87I
notes: captured by anti-His mAb
For B5, in the assay with human IL-23 [1], the “IL-17 EC50” value stood at 2.9 nM and the “IL-22 EC50” value amounted to 2.3 nM. The “Kit 225 pSTAT3 IC50 (nM)” value in the assay with human IL-23 [2] is 0.4 nM. In the assay with human IL-23 [3], this molecule registered a Kd of 3.4 nM, a koff of 0.000395 s⁻¹ and a kon of 118000 M⁻¹ s⁻¹.

B6: 1572G06 (designed binder)
chain: B2 chain with S54R, R55Y, K81A, E82Q, A83E, R86K
notes: captured by anti-His mAb
With B6, in the assay with human IL-23 [1], the “IL-17 EC50” value turned out to be 1.6 nM, the “IL-22 EC50” value is 1.9 nM and the “PBMNC pSTAT3 IC50 (nM)” value stood at 0.21 nM. Besides, the “Kit 225 pSTAT3 IC50 (nM)” value with human IL-23 [2] is 0.05 nM. The kon with human IL-23 [3] amounted to 105000 M⁻¹ s⁻¹.

B7: 1572H05 (designed binder)
chain: B2 chain with V31I, S54R, R55S, K81E, E82Q, A83V, N84E
notes: captured by anti-His mAb
B7: the “Kit 225 pSTAT3 IC50 (nM)” value with human IL-23 [2] was 0.01 nM. In the assay with human IL-23 [3], this molecule came in with a Kd of 0.61 nM, a koff of 0.00023 s⁻¹ and an on-rate constant (kon) of 375000 M⁻¹ s⁻¹.

B8: 1550 E06 (designed binder)
chain: B2 chain with L29M, S54P, R55P, K56R, Y57H, K81A, E82Q, A83E, R86K
notes: captured by anti-His mAb
With B8, in the assay with human IL-23 [1], the “IL-17 EC50” value worked out at 1.5 nM, the “IL-22 EC50” value was 2.1 nM and the “PBMNC pSTAT3 IC50 (nM)” value was determined as 1.15 nM. Also, the “Kit 225 pSTAT3 IC50 (nM)” value in the assay with human IL-23 [2] stood at 0.4 nM. In the assay with human IL-23 [3], this molecule showed a Kd of 2.1 nM, a koff of 0.000116 s⁻¹ and a kon of 55400 M⁻¹ s⁻¹.

B9: 1490H05 (designed binder)
chain: B2 chain with S54M, K56Q, Y57H, K81A, E82Q, A83E, R86K
notes: captured by anti-His mAb
Turning to B9, in the assay with human IL-23 [1], the “IL-17 EC50” value is 1.8 nM and the “IL-22 EC50” value came out at 2.9 nM. Besides, the “Kit 225 pSTAT3 IC50 (nM)” value in the assay with human IL-23 [2] stood at 0.4 nM. In the assay with human IL-23 [3], this molecule yielded a Kd of 2.1 nM, a koff of 0.000322 s⁻¹ and a kon of 156000 M⁻¹ s⁻¹.

B10: 1571G06 (designed binder)
chain: B2 chain with V31L, S54R, R55T, N84D, R86S, E87Q
notes: captured by anti-His mAb
B10: in the assay with human IL-23 [1], the “IL-17 EC50” value stood at 3.5 nM, the “IL-22 EC50” value came out at 5.1 nM and the “PBMNC pSTAT3 IC50 (nM)” value amounted to 0.93 nM. Further, the “Kit 225 pSTAT3 IC50 (nM)” value with human IL-23 [2] was 0.3 nM. In the assay with human IL-23 [3], this molecule yielded a Kd of 1.81 nM, a koff of 0.000238 s⁻¹ and a kon of 131000 M⁻¹ s⁻¹.

B11: SABA3.1 (designed binder)
chain: MGVSDVPRDLEVVAATPTSLLISWSNDGPGLSYYRITYGETGGNSPVQEFTVPSSQTTATISGLKPGVDYTITVYAVSYYTKKAYSAGPISINYRTEIDKPSQHHHHHH
Regarding B11, in the assay with human serum albumin, binding was put at a Kd of 863 nM and the koff was determined as 0.0682 s⁻¹. In the assay with rhesus serum albumin, binding was characterised by a dissociation constant (Kd) of 431 nM and the koff is 0.0337 s⁻¹. Moreover, the binding result with murine serum albumin was “no binding”.

B12: ATI001014 (designed binder)
chain: MGVSDVPRDLEVVAATPTSLLISWGHYPLHVRYYRITYGETGGNSPVQEFTVPPRSHTATISGLKPGVDYTITVYAVTYYAQENYKEIPISINYRTGSGC
modifications: pegylated at the C-terminal GSGC linker (Cys)
notes: not shown: his-tag
Consider B12, for which, in the assay with human IL-23 [4], the Kd was found to be 1.8 nM, the koff amounted to 1.7e-05 s⁻¹ and the kon is 9400 M⁻¹ s⁻¹.

B13: ATI000934 (designed binder)
chain: MGVSDVPRDLEVVAATPTSLLISWGHYPLHLRYYRITYGETGGNSPVQEFTVPRTKYTATISGLKPGVDYTITVYAVTYYKEADYSQIPISINYRTEIDKPCQ
modifications: pegylated at the C-terminal EIDKPCQ (Cys)
notes: also called ATI 934; not shown: his-tag
In the assay with human IL-23 [4], B13 returned a dissociation constant (Kd) of 1.9 nM, a koff of 1.8e-05 s⁻¹ and a kon of 9400 M⁻¹ s⁻¹.

B14: SABA2.1 (designed binder)
chain: MGVSDVPRDLEVVAATPTSLLISWPKYDKTGHYYRITYGETGGNSPVQEFTVPTRQTTATISGLKPGVDYTITVYAVSKDDYYPHEHRPISINYRTEIDKPSQHHHHHH
On to B14, for which, in the assay with human serum albumin, the Kd worked out at 33.8 nM and the koff was found to be 0.000171 s⁻¹. In the assay with rhesus serum albumin, the Kd turned out to be 63.6 nM and the dissociation rate constant (koff) is 0.000442 s⁻¹. Further, the binding result with murine serum albumin was “no binding”.

B15: SABA4.1 (designed binder)
chain: MGVSDVPRDLEMVAATPTSLLISWEDDSYYSRYYRITYGETGGNSPVQEFTVPSDLYTATISGLKPGVDYTITVYAVTYDVTDLIMHEPISINYRTEIDKPSQHHHHHH
Take B15: the dissociation constant (Kd) with human serum albumin is 412 nM; with rhesus serum albumin it was more than 1000 nM. Besides, the koff in the assay with human serum albumin was found to be 0.000782 s⁻¹; with rhesus serum albumin it was 0.00383 s⁻¹. Besides, in the assay with murine serum albumin, the binding result was “no binding”.
